Reference: patent US20230002480A1

How the values were obtained:
Test in all cases: cell-based or functional assay
[1] = molecular target: HIV-1 Env of pseudovirus A07412M1.vrc12 (HIV-1)
[2] = molecular target: HIV-1 Env of pseudovirus CNE53 (HIV-1)
[3] = molecular target: HIV-1 Env of pseudovirus Q461.e2 (HIV-1)
[4] = molecular target: HIV-1 Env of pseudovirus MS208.A1 (HIV-1)
[5] = molecular target: HIV-1 Env of pseudovirus Q259.d2.17 (HIV-1)
[6] = molecular target: HIV-1 Env of pseudovirus 6540.v4.c1 (HIV-1)
[7] = molecular target: HIV-1 Env of pseudovirus X2088_c9 (HIV-1)
[8] = molecular target: HIV-1 Env of pseudovirus BJOX015000.11.5 (HIV-1)
[9] = molecular target: HIV-1 Env of pseudovirus QH0692.42 (HIV-1)
[10] = molecular target: HIV-1 Env of pseudovirus P1981_C5_3 (HIV-1)
[11] = molecular target: HIV-1 Env of pseudovirus 62357_14_D3_4589 (HIV-1)
[12] = molecular target: HIV-1 Env of pseudovirus ZM249M.PL1 (HIV-1)
[13] = molecular target: HIV-1 Env of pseudovirus 235-47 (HIV-1)
[14] = molecular target: HIV-1 Env of pseudovirus Ce2010_F5 (HIV-1)
[15] = molecular target: HIV-1 Env of pseudovirus REJO4541.67 (HIV-1)
[16] = molecular target: HIV-1 Env of pseudovirus BJOX009000.02.4 (HIV-1)
[17] = molecular target: HIV-1 Env of pseudovirus Ce2060_G9 (HIV-1)
[18] = molecular target: HIV-1 Env of pseudovirus T257-31 (HIV-1)
[19] = molecular target: HIV-1 Env of pseudovirus 191084 B7-19 (HIV-1)
[20] = molecular target: HIV-1 Env of pseudovirus Du156.12 (HIV-1)
[21] = molecular target: HIV-1 Env of pseudovirus C4118.c09 (HIV-1)
[22] = molecular target: HIV-1 Env of pseudovirus WEAU_d15_410_787 (HIV-1)
[23] = molecular target: HIV-1 Env of pseudovirus TRO.11 (HIV-1)
[24] = molecular target: HIV-1 Env of pseudovirus BJOX010000.06.2 (HIV-1)
[25] = molecular target: HIV-1 Env of pseudovirus R3265.c06 (HIV-1)
[26] = molecular target: HIV-1 Env of pseudovirus PVO.4 (HIV-1)
[27] = molecular target: HIV-1 Env of pseudovirus 6952.v1.c20 (HIV-1)
[28] = molecular target: HIV-1 Env of pseudovirus ZM214M.PL15 (HIV-1)
[29] = molecular target: HIV-1 Env of pseudovirus C1080.c03 (HIV-1)
[30] = molecular target: HIV-1 Env of pseudovirus R1166.c01 (HIV-1)
[31] = molecular target: HIV-1 Env of pseudovirus Du422.1 (HIV-1)
[32] = molecular target: HIV-1 Env of pseudovirus HIV-16845-2.22 (HIV-1)
[33] = molecular target: HIV-1 Env of pseudovirus X1632_S2_B10 (HIV-1)
[34] = molecular target: HIV-1 Env of pseudovirus 3016.v5.c45 (HIV-1)
[35] = molecular target: HIV-1 Env of pseudovirus Ce0682_E4 (HIV-1)
[36] = molecular target: HIV-1 Env of pseudovirus HIV-0013095-2.11 (HIV-1)

Substance: PGT145 (antibody)
- IC50, titer in TZM.bl cells [1]: 0.002 µg/mL
- IC80, titer in TZM.bl cells [1]: 0.023 µg/mL
- IC50 [2]: 0.006 µg/mL
- IC80 [2]: 0.084 µg/mL
- IC50 [3]: 7.8 µg/mL
- IC80 [3]: > 50 µg/mL
- IC50 [4]: 0.334 µg/mL
- IC80 [4]: 18 µg/mL
- IC50 [5]: 44.2 µg/mL
- IC80 [5]: > 50 µg/mL
- IC50, titer in TZM.bl cells [6]: 0.08 µg/mL
- IC80, titer in TZM.bl cells [6]: 5.09 µg/mL
- IC50, titer in TZM.bl cells [7]: > 50 µg/mL
- IC80, titer in TZM.bl cells [7]: > 50 µg/mL
- IC50, titer in TZM.bl cells [8]: > 50 µg/mL
- IC80, titer in TZM.bl cells [8]: > 50 µg/mL
- IC50 [9]: > 50 µg/mL
- IC80 [9]: > 50 µg/mL
- IC50, titer in TZM.bl cells [10]: 5.41 µg/mL
- IC80, titer in TZM.bl cells [10]: > 50 µg/mL
- IC50 [11]: > 50 µg/mL
- IC80 [11]: > 50 µg/mL
- IC50 [12]: 1.44 µg/mL
- IC80 [12]: > 50 µg/mL
- IC50, titer in TZM.bl cells [13]: 3.21 µg/mL
- IC80, titer in TZM.bl cells [13]: 36 µg/mL
- IC50 [14]: > 50 µg/mL
- IC80 [14]: > 50 µg/mL
- IC50 [15]: < 0.001 µg/mL
- IC80 [15]: 0.001 µg/mL
- IC50, titer in TZM.bl cells [16]: 0.117 µg/mL
- IC80, titer in TZM.bl cells [16]: 0.745 µg/mL
- IC50 [17]: 0.016 µg/mL
- IC80 [17]: 0.205 µg/mL
- IC50 [18]: 5.18 µg/mL
- IC80 [18]: > 50 µg/mL
- IC50 [19]: 0.028 µg/mL
- IC80 [19]: 0.345 µg/mL
- IC50 [20]: 0.001 µg/mL
- IC80 [20]: 0.018 µg/mL
- IC50, titer in TZM.bl cells [21]: < 0.001 µg/mL
- IC80, titer in TZM.bl cells [21]: 0.004 µg/mL
- IC50 [22]: 1.95 µg/mL
- IC80 [22]: 31.5 µg/mL
- IC50 [23]: 0.04 µg/mL
- IC80 [23]: 0.118 µg/mL
- IC50, titer in TZM.bl cells [24]: > 50 µg/mL
- IC80, titer in TZM.bl cells [24]: > 50 µg/mL
- IC50, titer in TZM.bl cells [25]: 0.037 µg/mL
- IC80, titer in TZM.bl cells [25]: 0.227 µg/mL
- IC50 [26]: 0.192 µg/mL
- IC80 [26]: 0.87 µg/mL
- IC50, titer in TZM.bl cells [27]: 3.12 µg/mL
- IC80, titer in TZM.bl cells [27]: > 50 µg/mL
- IC50 [28]: > 50 µg/mL
- IC80 [28]: > 50 µg/mL
- IC50, titer in TZM.bl cells [29]: 0.024 µg/mL
- IC80, titer in TZM.bl cells [29]: 0.146 µg/mL
- IC50, titer in TZM.bl cells [30]: 2.27 µg/mL
- IC80, titer in TZM.bl cells [30]: 17.9 µg/mL
- IC50 [31]: 22.6 µg/mL
- IC80 [31]: > 50 µg/mL
- IC50 [32]: > 50 µg/mL
- IC80 [32]: > 50 µg/mL
- IC50, titer in TZM.bl cells [33]: 0.012 µg/mL
- IC80, titer in TZM.bl cells [33]: 2.03 µg/mL
- IC50, titer in TZM.bl cells [34]: > 50 µg/mL
- IC80, titer in TZM.bl cells [34]: > 50 µg/mL
- IC50 [35]: 33.6 µg/mL
- IC80 [35]: > 50 µg/mL
- IC50 [36]: 9.27 µg/mL
- IC80 [36]: > 50 µg/mL

Substance: PGT128 (antibody)
- IC50, titer in TZM.bl cells [1]: > 50 µg/mL
- IC80, titer in TZM.bl cells [1]: > 50 µg/mL
- IC50 [2]: 0.01 µg/mL
- IC80 [2]: 0.049 µg/mL
- IC50 [3]: > 50 µg/mL
- IC80 [3]: > 50 µg/mL
- IC50 [4]: > 50 µg/mL
- IC80 [4]: > 50 µg/mL
- IC50 [5]: > 50 µg/mL
- IC80 [5]: > 50 µg/mL
- IC50, titer in TZM.bl cells [6]: 11.8 µg/mL
- IC80, titer in TZM.bl cells [6]: > 50 µg/mL
- IC50, titer in TZM.bl cells [7]: > 50 µg/mL
- IC80, titer in TZM.bl cells [7]: > 50 µg/mL
- IC50, titer in TZM.bl cells [8]: 0.001 µg/mL
- IC80, titer in TZM.bl cells [8]: 0.011 µg/mL
- IC50 [9]: 0.029 µg/mL
- IC80 [9]: 0.081 µg/mL
- IC50, titer in TZM.bl cells [10]: 0.019 µg/mL
- IC80, titer in TZM.bl cells [10]: 0.088 µg/mL
- IC50 [11]: 1.14 µg/mL
- IC80 [11]: > 50 µg/mL
- IC50 [12]: 39.7 µg/mL
- IC80 [12]: > 50 µg/mL
- IC50, titer in TZM.bl cells [13]: > 50 µg/mL
- IC80, titer in TZM.bl cells [13]: > 50 µg/mL
- IC50 [14]: > 50 µg/mL
- IC80 [14]: > 50 µg/mL
- IC50 [15]: > 50 µg/mL
- IC80 [15]: > 50 µg/mL
- IC50, titer in TZM.bl cells [16]: < 0.001 µg/mL
- IC80, titer in TZM.bl cells [16]: 0.005 µg/mL
- IC50 [17]: > 50 µg/mL
- IC80 [17]: > 50 µg/mL
- IC50 [18]: > 50 µg/mL
- IC80 [18]: > 50 µg/mL
- IC50 [19]: 0.022 µg/mL
- IC80 [19]: 0.152 µg/mL
- IC50 [20]: 0.017 µg/mL
- IC80 [20]: 0.046 µg/mL
- IC50, titer in TZM.bl cells [21]: > 50 µg/mL
- IC80, titer in TZM.bl cells [21]: > 50 µg/mL
- IC50 [22]: 0.032 µg/mL
- IC80 [22]: 0.153 µg/mL
- IC50 [23]: 0.019 µg/mL
- IC80 [23]: 0.045 µg/mL
- IC50, titer in TZM.bl cells [24]: 4.82 µg/mL
- IC80, titer in TZM.bl cells [24]: > 50 µg/mL
- IC50, titer in TZM.bl cells [25]: > 50 µg/mL
- IC80, titer in TZM.bl cells [25]: > 50 µg/mL
- IC50 [26]: 0.011 µg/mL
- IC80 [26]: 0.028 µg/mL
- IC50, titer in TZM.bl cells [27]: > 50 µg/mL
- IC80, titer in TZM.bl cells [27]: > 50 µg/mL
- IC50 [28]: 1.5 µg/mL
- IC80 [28]: 29.4 µg/mL
- IC50, titer in TZM.bl cells [29]: 0.283 µg/mL
- IC80, titer in TZM.bl cells [29]: 2.06 µg/mL
- IC50, titer in TZM.bl cells [30]: > 50 µg/mL
- IC80, titer in TZM.bl cells [30]: > 50 µg/mL
- IC50 [31]: 0.039 µg/mL
- IC80 [31]: 0.113 µg/mL
- IC50 [32]: 0.181 µg/mL
- IC80 [32]: 0.834 µg/mL
- IC50, titer in TZM.bl cells [33]: > 50 µg/mL
- IC80, titer in TZM.bl cells [33]: > 50 µg/mL
- IC50, titer in TZM.bl cells [34]: > 50 µg/mL
- IC80, titer in TZM.bl cells [34]: > 50 µg/mL
- IC50 [35]: > 50 µg/mL
- IC80 [35]: > 50 µg/mL
- IC50 [36]: > 50 µg/mL
- IC80 [36]: > 50 µg/mL
